Experimental findings from patent US20220064274A1 (SHANGHAI YILE BIOTECHNOLOGY, published 2022) are described below.

For assay [1], the target named is T1, VP peptide (human, also: biotinylated, position not given here).
T1 construct: Synthetic; also called Biotinylated VP peptide
T1 peptide: VMLSSQVPLEPP
Description: ELISA, biotinylated peptide. An excerpt:
(§1) The E5 peptide was further divided into three equal peptide segments, each comprising 12 amino acids, namely VP peptide ([…], SEQ ID NO: 33), LL peptide ([…], SEQ ID NO: 34), DH Peptide ([…], SEQ ID NO: 35). Biotinylated VP peptide, LL peptide and DH peptide were synthesized in vitro by GL Biochemical (Shanghai) Ltd. and the binding of antibodies was detected by ELISA.
(An ELISA detects its analyte on a solid surface through an enzyme-linked reagent.)

Assay [2] deals with T2, DH Peptide (human, also: biotinylated, position not given here).
T2 construct: Synthetic; also called polypeptide DH; Biotinylated DH peptide
T2 peptide: DAANMSMRVRRH
The experiment in a line: ELISA, biotinylated peptide.
Source text: as §1

The target in assay [3] is T3, LL peptide (human, also: biotinylated, position not given here).
T3 construct: Synthetic; also called Biotinylated LL peptide
T3 peptide: LLFLLEEYKNYL
The experiment in a line: ELISA, biotinylated peptide.
Source text: as §1

The target of assay [4] is T4, human proBDNF precursor protein (human, UniProt P23560 19-247).
T4 construct: also called human proBDNF precursor recombinant protein
T4 sequence (looked up): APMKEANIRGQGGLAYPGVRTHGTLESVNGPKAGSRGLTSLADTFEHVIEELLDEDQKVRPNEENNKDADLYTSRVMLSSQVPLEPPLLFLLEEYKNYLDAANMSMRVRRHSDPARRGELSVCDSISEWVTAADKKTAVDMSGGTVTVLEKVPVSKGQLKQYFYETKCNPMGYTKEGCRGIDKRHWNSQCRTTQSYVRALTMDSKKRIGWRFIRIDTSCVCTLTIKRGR
Description: SPR, Biacore T200, capture method, human proBDNF precursor protein at 0.25-8 nM. As for the experimental part: The affinity and kinetic parameters of the 1D3 and 2H8 monoclonal antibodies were measured by the capture method using the Biacore T200 system (purchased from GE). The operation is referred to the instruction. The adopted concentrations of human proBDNF precursor protein were 0.25nM, 0.5nM, 1nM, 2nM, 4nM and 8nM, respectively. The Biacore T200 evaluation software was used to evaluate the obtained action curve and to calculate the KD value of affinity . FIG. 1A and FIG. 1B respectively show the kinetic curves of monoclonal antibodies 1D3 and 2H8 in the Biacore affinity determination experiment.
In general terms: In SPR one partner is held on a chip, and binding of the other changes the refractive index at the surface.

Assay [5] deals with T5, GST-human proBDNF-E5 peptide (human).
T5 construct: not shown: GST (glutathione S-transferase) fusion partner
T5 chain: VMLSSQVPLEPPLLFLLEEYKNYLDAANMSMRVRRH
Description: ELISA on GST fusion proteins. From the text:
(§2) The five peptides were fused with GST and expressed, and then purified. The binding of antibodies 1D3 and 2H8 was detected by ELISA.

For assay [6], the target named is T6, GST-huBDNFpro4.
T6 construct: Printed on the sheet without the E ('GST-huBDNFpro4'); also called E4; GST-human proBDNF-E4 peptide
T6 peptide: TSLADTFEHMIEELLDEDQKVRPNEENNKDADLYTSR
Description: ELISA, GST fusion protein coated, absorbance at 450 nm.
Source text: as §2

Assay [7] has as its target T7, GST-human proBDNF-E2 peptide (human, UniProt P23560 76-129).
T7 construct: not shown: GST (glutathione S-transferase) fusion partner
T7 sequence: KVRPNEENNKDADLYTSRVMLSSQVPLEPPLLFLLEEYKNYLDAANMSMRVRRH
The experiment in a line: ELISA on GST fusion proteins.
Source text: as §2

As a reminder, the Kd is the equilibrium constant for the complex coming apart. Low readings indicate higher affinity, high ones lower affinity. For orientation: koff means the rate constant with which the complex falls apart. Usually kon stands for the second-order rate constant of association. Low readings indicate slower complex formation, high ones faster complex formation.

No end group written: not given here.

B1: 2H8 Monoclonal antibody (antibody, V domains shown)
VH: EVQLVETGGGLVQPGGSLRLSCAASGFTFSSYGMHWVRQAPGKGLEWVSVISGSGDSTYYAESVKGRFTISRDNARNTVYLQMNSLRAEDTAVYYCASGILTGYVFDYWGKGTMVTVSS
VL: DVVMTQSPLSLPVTLGQPASISCRSSQSLVSNDGNTYLNWFQQRPGQPPRRLIYMVSKWDSGVPDRFSGSGSGTDFTLRISRVEAEDVGVYYCMQSTHWPPTFGGGTKLEIKR
notes: also called recombinant monoclonal antibody 2H8
Regarding B1, the binding result in assay [1] is listed as “no binding”; in assay [2] it was “binds”; in assay [3] it was “no binding”; in assay [5] it was “binds”; in assay [6] it was “no binding”. In assay [4], this molecule returned a Kd of 1.91 nM. In addition, in assay [4], the koff is 0.00594 s⁻¹. This molecule came in with a kon in assay [4] of 3.1e+06 M⁻¹ s⁻¹.

B2: 1D3 Monoclonal antibody (antibody, V domains shown)
VH: QVQLVESGGGLIQPGGSMRLSCAASGFSLSGYDMHWVRQIAGKGLEWVAGLGMEGDSYYSASVKGRFTISRQDAKNSLYLEMKDLGGGDTAVYYCLRDVHGFDVWGQGTTVTVSS
VL: DVVMTQSPLSLPVTPGEPASISCRSSQSLLYSNGYTYLDWYLQRPGQSPQLLIYMGSNRASGVPDRFSGSGSGTDFTLKISRVEAEDVGVYYCMQALQTPLTFGGGTKLEIKR
notes: also called recombinant monoclonal antibody 1D3; fully human monoclonal antibody 1D3
With B2, the binding result in assay [1] is reported as “no binding”; in assay [2], “binds”; in assay [3], “no binding”; in assay [7], “binds”; in assay [5], “binds”; in assay [6], “no binding”.
